From article PMC10630626 (2023)

B1: anti-idiotypic nanobody for Palivizumab 1 (AIP1^VHH), soluble (VHH)
VHH: DVQLQESGGGLVQAGGSLRLSCVASGLTFRYDMGWFRQAPGKEREFVAQITWRGGSATYYADSVKGRFTIARDIAKNAVYLQMNSLKPEDTAVYYCAAAYGSAGYRPDEYDSWGQGTQVTVSS
B2: anti-idiotypic nanobody for Palivizumab 3 (AIP3^VHH), soluble (VHH)
VHH: DVQLQESGGGLVQPGGSLRLSCVASGRTWSIYAMGWFRQAPGKEREFVTAISISRSESVTHYAESVTGRFTISRDNAKNTLHLQMNSLKPEDTAVYFCAADRRSIDPHHTIDYWGQGTQVTVSS
B3: anti-idiotypic nanobody for Palivizumab 4 (AIP4^VHH), soluble (VHH)
VHH: DVQLQESGGGLVQAGGSLRLSCVASGRAFSRYDMGWFRQAPGKEREFVAQISWRGGSATSYADTVKGRFTIARDNAKNTVYLQMNSLKPEDTAVYYCNARTPTLSSWGQGTQVTVSS
B4: anti-idiotypic nanobody for Palivizumab 2 (AIP2^VHH), soluble (VHH)
VHH: DVQLQESGGGLVQAGGSLRLSCAASESLFRLNAMGWYRQAPGKQRELVAGITTSGDAVYADSVKGRFTISRDSAKNTVYLQTNNLKPEDTAVYYCNVRPRAGTWENARIGVWGQGTQVTVSS

Columns and labels:
Experiment in all cases: SPR
[1] = molecular target: Palivizumab single-chain variable fragment, light-heavy order, fused to IgG1 Fc (P^scFvLHFc)
[2] = molecular target: Palivizumab single-chain variable fragment, heavy-light order, fused to IgG1 Fc (P^scFvHLFc)
[3] = molecular target: Palivizumab
Chain of Palivizumab (VH, as listed by the source, chain 1 of 2): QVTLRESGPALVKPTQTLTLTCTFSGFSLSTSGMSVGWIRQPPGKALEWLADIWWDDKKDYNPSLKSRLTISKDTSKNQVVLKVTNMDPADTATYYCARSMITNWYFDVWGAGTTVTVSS
Chain of Palivizumab (VL, as listed by the source, chain 2 of 2): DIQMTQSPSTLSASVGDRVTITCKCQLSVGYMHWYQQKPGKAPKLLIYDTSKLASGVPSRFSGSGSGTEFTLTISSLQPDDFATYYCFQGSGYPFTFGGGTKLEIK

Chain of Palivizumab single-chain variable fragment, heavy-light order, fused to IgG1 Fc (P^scFvHLFc) (chain, as listed by the source, chain 1 of 2): as the sequence (VH, as listed by the source, chain 1 of 2) above
Chain of Palivizumab single-chain variable fragment, heavy-light order, fused to IgG1 Fc (P^scFvHLFc) (chain, as listed by the source, chain 2 of 2): as the sequence (VL, as listed by the source, chain 2 of 2) above
Chain of Palivizumab single-chain variable fragment, light-heavy order, fused to IgG1 Fc (P^scFvLHFc) (chain, as listed by the source, chain 1 of 2): as the sequence (VH, as listed by the source, chain 1 of 2) above
Chain of Palivizumab single-chain variable fragment, light-heavy order, fused to IgG1 Fc (P^scFvLHFc) (chain, as listed by the source, chain 2 of 2): as the sequence (VL, as listed by the source, chain 2 of 2) above

koff [1] [s⁻¹]	koff [2] [s⁻¹]	koff [3] [s⁻¹]	Binder
4.2e-05	6.56e-05	–	B1
–	–	0.00308	B2
–	–	0.0148	B3
–	–	0.000733	B4
